Key:
[1] = target: LacI-CFP-FOXO1 fusion protein with the C793S mutant FOXO1 domain; test: LacO array recruitment assay; U2OS cells with 50,000 Lac operon repeats on chromosome 1, transfected with CFP-LacI-FOXO1 fusion baits; endogenous p300 detected at the CFP dot by immunofluorescence after 48 h; dots counted for presence or absence of p300
[2] = target: LacI-CFP-FOXO1 fusion protein with the small C-terminal AD deleted; test: as above
[3] = target: CLP1; test: BioID (proximity biotinylation, streptavidin isolation, mass spectrometry); conditions: HEK293T cells, transient transfection, biotin, 24 h; n = 3; read off a plot
[4] = target: DNTTIP2; test: as above; conditions: HEK293T cells, transient transfection, biotin, 24 h; n = 3; read off a plot
[5] = target: MED6 (UniProt O75586); test: as above; conditions: HEK293T cells, transient transfection, biotin, 24 h; n = 3; read off a plot
[6] = target: TAF9 (UniProt Q16594); test: as above; conditions: HEK293T cells, transient transfection, biotin, 24 h; n = 3; read off a plot
[7] = target: TCF4; test: as above; conditions: HEK293T cells, transient transfection, biotin, 24 h; n = 3; read off a plot
[8] = target: YY1; test: as above; conditions: HEK293T cells, transient transfection, biotin, 24 h; n = 3; read off a plot
[9] = target: p300 (UniProt Q09472); test: as above; conditions: HEK293T cells, transient transfection, biotin, 24 h; n = 3; read off a plot
Sequence of UniProt Q09472 (Q09472 whole entry): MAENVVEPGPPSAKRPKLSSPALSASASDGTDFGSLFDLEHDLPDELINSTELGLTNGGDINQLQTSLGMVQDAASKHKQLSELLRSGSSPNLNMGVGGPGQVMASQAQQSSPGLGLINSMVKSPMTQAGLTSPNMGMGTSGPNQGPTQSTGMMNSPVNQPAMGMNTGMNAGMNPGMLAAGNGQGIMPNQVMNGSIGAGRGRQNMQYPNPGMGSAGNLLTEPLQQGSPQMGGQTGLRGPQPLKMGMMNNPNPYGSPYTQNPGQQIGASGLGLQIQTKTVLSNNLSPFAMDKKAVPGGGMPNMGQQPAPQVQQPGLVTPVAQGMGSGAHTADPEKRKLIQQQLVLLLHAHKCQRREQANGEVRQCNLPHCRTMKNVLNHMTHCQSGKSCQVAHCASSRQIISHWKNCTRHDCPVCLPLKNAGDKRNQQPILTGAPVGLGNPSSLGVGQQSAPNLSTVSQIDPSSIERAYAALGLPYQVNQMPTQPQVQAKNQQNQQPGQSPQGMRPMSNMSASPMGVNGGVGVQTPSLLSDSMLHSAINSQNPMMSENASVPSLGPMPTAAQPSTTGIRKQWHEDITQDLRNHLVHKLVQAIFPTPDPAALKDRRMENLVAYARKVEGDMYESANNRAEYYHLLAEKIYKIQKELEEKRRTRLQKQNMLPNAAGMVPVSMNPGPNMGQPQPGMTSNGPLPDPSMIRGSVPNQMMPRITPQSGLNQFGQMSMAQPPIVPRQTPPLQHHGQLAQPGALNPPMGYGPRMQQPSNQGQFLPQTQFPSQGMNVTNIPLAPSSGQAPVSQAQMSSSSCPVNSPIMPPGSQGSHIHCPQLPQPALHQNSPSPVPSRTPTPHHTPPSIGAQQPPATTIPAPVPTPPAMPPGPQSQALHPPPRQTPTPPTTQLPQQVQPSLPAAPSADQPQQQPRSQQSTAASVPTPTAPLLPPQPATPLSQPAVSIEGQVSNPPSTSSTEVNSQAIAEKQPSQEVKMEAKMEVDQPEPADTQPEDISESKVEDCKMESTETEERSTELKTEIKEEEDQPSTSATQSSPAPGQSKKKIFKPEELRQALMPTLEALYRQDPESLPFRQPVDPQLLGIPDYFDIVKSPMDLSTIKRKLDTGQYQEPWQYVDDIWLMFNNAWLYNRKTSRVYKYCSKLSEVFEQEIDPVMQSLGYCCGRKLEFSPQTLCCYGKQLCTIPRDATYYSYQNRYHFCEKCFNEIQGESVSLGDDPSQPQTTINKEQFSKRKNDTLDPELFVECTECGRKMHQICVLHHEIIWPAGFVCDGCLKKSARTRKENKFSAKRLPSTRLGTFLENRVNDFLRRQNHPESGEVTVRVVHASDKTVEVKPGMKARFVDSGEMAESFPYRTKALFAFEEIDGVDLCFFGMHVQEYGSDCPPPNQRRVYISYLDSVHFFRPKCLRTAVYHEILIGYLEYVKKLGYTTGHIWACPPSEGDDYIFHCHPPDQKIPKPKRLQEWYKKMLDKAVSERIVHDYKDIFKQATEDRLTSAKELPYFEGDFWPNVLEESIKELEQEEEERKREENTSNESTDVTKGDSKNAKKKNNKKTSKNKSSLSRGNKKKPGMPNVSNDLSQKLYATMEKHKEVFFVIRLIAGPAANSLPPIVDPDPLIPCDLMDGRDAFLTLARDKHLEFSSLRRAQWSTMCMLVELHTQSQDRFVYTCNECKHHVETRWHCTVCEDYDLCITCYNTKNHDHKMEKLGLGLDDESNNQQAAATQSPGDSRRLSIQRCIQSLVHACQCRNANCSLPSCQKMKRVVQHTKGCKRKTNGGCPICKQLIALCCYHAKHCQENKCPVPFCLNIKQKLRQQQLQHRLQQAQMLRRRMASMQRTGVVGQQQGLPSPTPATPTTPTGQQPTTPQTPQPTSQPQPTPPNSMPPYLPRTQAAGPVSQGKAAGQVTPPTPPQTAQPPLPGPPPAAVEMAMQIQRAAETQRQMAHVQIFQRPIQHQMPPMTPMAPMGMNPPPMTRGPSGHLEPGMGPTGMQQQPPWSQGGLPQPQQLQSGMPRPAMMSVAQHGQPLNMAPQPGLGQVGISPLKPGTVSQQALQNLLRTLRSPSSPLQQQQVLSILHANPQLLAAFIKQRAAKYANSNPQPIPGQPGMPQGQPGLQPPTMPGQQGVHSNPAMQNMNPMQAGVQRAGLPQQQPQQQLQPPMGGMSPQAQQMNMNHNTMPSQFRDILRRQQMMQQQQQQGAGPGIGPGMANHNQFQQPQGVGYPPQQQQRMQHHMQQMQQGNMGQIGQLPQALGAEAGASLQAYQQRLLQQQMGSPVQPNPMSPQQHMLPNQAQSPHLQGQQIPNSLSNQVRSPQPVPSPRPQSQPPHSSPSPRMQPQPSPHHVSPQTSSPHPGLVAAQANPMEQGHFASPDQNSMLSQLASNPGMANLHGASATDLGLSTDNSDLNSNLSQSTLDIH

Sequence of UniProt Q16594 (Q16594 whole entry): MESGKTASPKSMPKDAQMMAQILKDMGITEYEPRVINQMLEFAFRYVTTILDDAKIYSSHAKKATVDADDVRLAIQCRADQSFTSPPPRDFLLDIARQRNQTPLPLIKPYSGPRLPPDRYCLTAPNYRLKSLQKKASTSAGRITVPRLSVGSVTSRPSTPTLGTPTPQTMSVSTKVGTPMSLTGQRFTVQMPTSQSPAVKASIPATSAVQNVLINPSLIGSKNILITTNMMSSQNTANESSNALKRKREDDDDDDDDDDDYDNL
Sequence of UniProt O75586 (O75586 whole entry): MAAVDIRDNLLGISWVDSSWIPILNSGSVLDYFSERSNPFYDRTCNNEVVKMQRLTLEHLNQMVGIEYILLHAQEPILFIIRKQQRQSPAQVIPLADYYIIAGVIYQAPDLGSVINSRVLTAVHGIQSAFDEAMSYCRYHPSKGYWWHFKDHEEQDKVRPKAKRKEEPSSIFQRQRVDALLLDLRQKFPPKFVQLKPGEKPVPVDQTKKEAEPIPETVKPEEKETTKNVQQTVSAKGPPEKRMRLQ

Row | loss of p300 recruitment against the wt FOXO1 [1] [percent] | reduction of p300 recruitment against the FOXO1 part of P3F [2] [percent] | other: Log2 (fold change) of total spectral counts [3] | other: Log2 (fold change) of total spectral counts [4] | other: Log2 (fold change) of total spectral counts [5] | other: Log2 (fold change) of total spectral counts [6] | other: Log2 (fold change) of total spectral counts [7] | other: Log2 (fold change) of total spectral counts [8] | other: Log2 (fold change) of total spectral counts [9] | Substance
1 | 30 | 90 | – | – | – | – | – | – | – | p300 (endogenous in U2OS cells) (from UniProt Q09472 1-2414) (natural protein)
2 | – | – | 2.2 | 2.5 | 1.2 | 3.8 | 1.4 | 2.4 | 0.7 | BirA-Flag/PAX3-FOXO1 fusion construct (wildtype P3F) C793S

Reference: PMC10724205
